Measured values taken from US6835814 (Eli Lilly, dated 2004).

T1: FLINT (FAS Ligand Inhibitory Protein), mature human FLINT (human, UniProt O95407 30-300)
T1 construct: also called mature FLINT
T1 sequence: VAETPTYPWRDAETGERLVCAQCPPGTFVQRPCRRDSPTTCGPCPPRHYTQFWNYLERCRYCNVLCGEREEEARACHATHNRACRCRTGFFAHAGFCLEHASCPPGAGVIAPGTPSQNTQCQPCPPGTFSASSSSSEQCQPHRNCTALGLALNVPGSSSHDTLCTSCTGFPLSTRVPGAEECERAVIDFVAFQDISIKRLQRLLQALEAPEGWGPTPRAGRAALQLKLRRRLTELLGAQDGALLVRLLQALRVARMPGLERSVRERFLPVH

B1: FasLigand (monomer) (ligand, UniProt P48023 103-281, looked up)
chain: QLFHLQKELAELRESTSQMHTASSLEKQIGHPSPPPEKKELRKVAHLTGKSNSRSMPLEWEDTYGIVLLSGVKYKKGGLVINETGLYFVYSKVYFRGQSCNNLPLSHKVYMRNSKYPQDLVMMEGKMMSYCTTGQMWARSSYLGAVFNLTSADHLYVNVSELSLVNFEESQTFFGLYKL
notes: Immobilized on a CM5 chip by amine coupling and printed as 'FasLigand (monomer)'; also called Fas Ligand (Kamiya Biomedical Company)

Legend:
[1] = target: T1, FLINT (FAS Ligand Inhibitory Protein), …; experiment: SPR (Biacore 2000), FasLigand immobilized on CM5 chip, FLINT in solution
Method: (§1) FasL or the FLINT analog are immobilized through their primary amine group on lysine residues onto carboxymethyldextran polymer attached to a gold surface (Sensor Chip CM5). Immobilization is carried out using the amine coupling kit (Biacore) according to the manufacturer's protocol. Briefly, 100 µl of either FasL or FLINT analog solutions (10–25 µg/ml in sodium acetate buffer 20 mM, pH 5.0) is loaded onto an activated CM5 chip. After coupling, excess reactive groups on the surface are deactivated with 1M ethanolamine hydrochloride pH 8.5. The chip is then washed with a sodium acetate buffer 20 mM, pH 5.0 to remove non-covalently bound material.
(§2) To analyze the interaction between FasL and FLINT analogs, solutions containing the FLINT analogs are passed over the chip with PasL immobilized thereon. The amount of the FLINT analog associated with FasL is determined by measuring the surface plasmon resonance signal (in responce units, RU). Typically, FLINT analog solutions at different concentrations in HBS-ET buffer are loaded on the sensor chip for 10 minutes at a flow rate of 5 µl/min. […]
(§3) The data is evaluated and binding parameters determined using BIA evaluation 3.0.2 software (Biacore). The Kd for the interaction between FLINT and FasL and between FasL and Fas was determined using the protocols described above.

FasLigand (monomer) = target: B1; experiment: SPR (Biacore 2000), FasLigand immobilized on CM5 chip, Fas in solution
Method: as §1, §2, §3

Kd [1]	Kd (FasLigand (monomer))	Binder
113 nM	–	B1
–	162 nM	Fas/Fc chimera (R&D Systems) (Fc fusion, UniProt P25445 26-173, looked up, The result line prints only 'Fas'; also called Pas/Fc chimera; Fc part of the bought chimera not given; not described) QVTDINSKGLELRKTVTTVETQNLEGLHHDGQFCHKPCPPGERKARDCTVNGDEPDCVPCQEGKEYTDKAHFSSKCRRCRLCDEGHGLEVEINCTRTQNTKCRCKPNFFCNSTVCEHCDPCTKCEHGIIKECTLTSNTKCKEEGSRSN
